Series [1] concerns STAT3 phosphorylation. Description: pSTAT3 and hIL-10 immunofluorescence in intestine 40 min post oral gavage. The format is in vivo, rat. On the procedure: This observation is consistent with findings in mice that intestinal epithelial cells can express IL-10 receptors at their apical surface under certain conditions associated with development and maintenance of barrier function. […] In order to quantify how test articles affected intestinal IL-10 signal transduction pathways, image analysis was performed: high-throughput image batches were collected, segmented by epithelial versus Lamina propria localization, and then by cellular features.

The nature of series [2]: Oral gavage 10 mg/kg in mice: hIL-10 and IL-1Ra time course. In kind it is in vivo. The source says:
The inflammatory actions of IL-1β are modulated by the presence of a specific receptor antagonist known as IL-1Ra. Increased serum IL-1Ra levels can be induced by IL-10, which can occur in the absence of a pro-inflammatory state. With an appreciation of uncertainties associated with how much and when biologically active delivery construct is released from the stomach to reach the small intestine as well as the timing of its uptake and actions within the Lamina propria following oral gavage, we examined IL-1Ra to function in non-inflamed mice as a biomarker of the IL-10 delivery construct's actions.
To test this question, the delivery construct was directly deposited onto the luminal surface of colonic intestinal mucosa in a nonhuman primate model.

Series [3] in a line: Purification with and without sulfitolysis: SEC-HPLC forms, yield, dimer recovery. On the procedure: Refolding in both processes was carried out at 4° C. The refolding solution used in both processes contained 1 mM reduced glutathione, 0.5 mM oxidized glutathione, 1M Arginine-HCl, 250 mM sucrose, 100 mM Tris pH 8.5 at 4° C., and 2 mM EDTA.
A general note: Size exclusion chromatography separates by hydrodynamic size, large species first.

The subject of series [4] is STAT3, IL-1Ra. In words: pSTAT3/STAT3 and systemic IL-1Ra in non-inflamed mice (ELISA MSD). In kind it is in vivo.
The subject of series [5] is IL-1Ra. In words: Single oral capsule dose in NHP: plasma IL-1Ra. The format is in vivo, Macaca fascicularis. The protocol:
The purpose of the IL-1Ra assay was to measure endogenous IL-1Ra in NHP plasma. The antibody pair in this sandwich immunoassay reacted with both human and NHP IL-1Ra. Samples were quantitated using an 8-point standard curve prepared from a human IL-1Ra calibrator (ranging from 5.5-4021 pg/mL, plus 0 pg/mL). Biotinylated anti-NHP IL-1Ra capture antibody was added to a MSD Small Spot Streptavidin plate and incubated for an hour at RT with shaking. Controls that represent low ([…]), mid ([…]) and high concentrations (3245 pg/mL) were prepared in pooled plasma, Standards (Calibrator 9 Blend) were prepared in Diluent 43 (MSD Cat No R50AG), and samples diluted 10 fold in Diluent 43. Standards, controls and diluted samples were added to the assay plate, and the plate incubated for 2 hours at room temperature with shaking. The plate was washed 3 times with PBST, and 1×SULFO TAG anti-IL-1Ra Antibody added to the plate. The plate was incubated for 1 hour at room temperature with shaking. Following a wash step, 2×MSD Read buffer was added to the wells of the plate, and the plate read using the MSD Sector Imager 600 plate reader. The lower limit of detection of each analyte is defined as 2.5 standard deviation above background.
IL-10 delivery construct dosing at multiple fixed doses in non-naïve adult male Macaca fascicularis was conducted by Valley Biosystems (West Sacramento, Calif.). […] Dosing groups are described in TABLE 45.
Blood samples were collected in K2EDTA tubes from each animal pre-dose and at 0.5, 1, 2, 3, 4, 5, 6, 7, 8, and 24 hours post-dose. Animals were returned to home cages following the 2-hour sample collection. Following physical restraint, blood samples were collected via direct venous puncture using a cephalic, femoral or saphenous vein, which were processed to plasma and stored frozen at −60° C. until shipment.

Series [6] in a line: Intraluminal injection in T-cell transfer colitis model, rhIL-10 ELISA. In kind it is in vivo, BALB/c and SCID mice. On the procedure:
This study was conducted to examine the potential for the carrier protein to transport rhIL-10 from the intestinal lumen into the submucosal region in inflamed intestinal tissue. The T lymphocyte (T cell) transfer model was used as it is a well-established model of induced chronic colitis in mice and presents many of the essential immunological hallmarks observed in IBD patients. Nine BALB/c mice and twelve SCID mice, including nine with the colitis-like model of inflammation, were dosed with 20 μl of test article via intraluminal injection into the distal ileum and the proximal, middle and distal colon.
PBS vehicle was administered to healthy BALB/c mice and both healthy and induced colitis SCID mice (n=3/group). In each group, two mice were terminated 10 minutes after intraluminal injections, and one was terminated 40 minutes after intraluminal injections. Intestinal tissue and serum were collected. Collected tissue was fixed, embedded, sectioned and H&E stained for histological assessment of inflammatory status. ELISA analysis to measure rhIL 10 was performed on lysates prepared from intestinal tissue and serum (FIGS. 106A-106D).
(An ELISA detects its analyte on a solid surface through an enzyme-linked reagent.)

The nature of series [7]: PK/PD by oral, subcutaneous, intravenous route in NHP. The format is in vivo, Macaca fascicularis. The source says:
For oral administration the IL-10 delivery construct was formulated in size 0 enteric coated capsules. For intravenous or subcutaneous administration it was formulated as a liquid in DS lyo formulation.

Series [8] deals with ulcerative colitis. In words: Phase 1b multiple ascending dose in patients with active UC. The format is in vivo, human. The protocol: Data was gathered on the safety, tolerability, pharmacokinetics, pharmacodynamics, and initial clinical response following a multiple ascending dose (MAD) of the IL-10 delivery construct in adult patients with active UC over 14 days of treatment. […] A coating with a weight ratio of 50:50 of Eudragit® L30D55: Eudragit® FS30D was applied with a thickness of 14.8 to 16.0 mg/cm^2 and a weight of approximately 76 mg to each capsule. Placebo capsules were generated using similarly coated empty capsules.
A total of four cohorts were dosed with either 1 mg, 3 mg, 10, mg or 30 mg of the IL-10 delivery construct, randomized 3:1 to receive the IL-10 delivery construct or a placebo administered once daily for fourteen days. The goal of the trial was to assess the safety of the IL-10 delivery construct and any change in UC disease activity, through endoscopy, histology, biomarkers, and serum samples. Stool samples and colonic biopsies were obtained at baseline and day 14 of treatment to assess fecal calprotectin as well as histology based upon blinded central read of the Geboes scoring system. Fecal calprotectin is an objective marker of clinical response in UC studies and the Geboes scoring system is a measure of histological response. The Geboes scoring system of this example used a 0-22 point histologic scoring system in which higher scores represent more severe disease.

The source of these data is patent US11466067B2 (priority 2019, dated 2022).

B1: IL-10 delivery construct: recombinant homodimeric fusion protein: N-terminal methionine, cholix386 domain, polyGlySer spacer, recombinant human IL-10 (protein)
chain: MVEEALNIFDECRSPCSLTPEPGKPIQSKLSIPSDVVLDEGVLYYSMTINDEQNDIKDEDKGESIITIGEFATVRATRHYVNQDAPFGVIHLDITTENGTKTYSYNRKEGEFAINWLVPIGEDSPASIKISVDELDQQRNIIEVPKLYSIDLDNQTLEQWKTQGNVSFSVTRPEHNIAISWPSVSYKAAQKEGSRHKRWAHWHTGLALCWLVPMDAIYNYITQQNCTLGDNWFGGSYETVAGTPKVITVKQGIEQKPVEQRIHFSKGNAMSALAAHRVCGVPLETLARSRKPRDLTDDLSCAYQAQNIVSLFVATRILFSHLDSVFTLNLDEQEPEVAERLSDLRRINENNPGMVTQVLTVARQIYNDYVTHHPGLTPEQTSAGAQAGGGGSGGGGSGGGGSPGQGTQSENSCTHFPGNLPNMLRDLRDAFSRVKTFFQMKDQLDNLLLKESLLEDFKGYLGCQALSEMIQFYLEEVMPQAENQDPDIKAHVNSLGENLKTLRLRLRRCHRFLPCENKSKAVEQVKNAFNKLQEKGIYKAMSEFDIFINYIEAYMTMKIRN
modifications: homodimer
For B1, the “hIL-10 and pSTAT3 in intestinal tissue” value in series [1] was “extensive amounts of hIL-10 and a large number of cells that were positive for pSTAT3 within the Lamina propria”. In series [2], the “hIL-10 in small intestinal lysates relative to colonic lysates” value is around 10 fold higher. In addition, in series [2] (4 h), the “serum IL-1Ra” value is on record as “significantly increased”. The “Dimer Purity (%)” value in series [3] (No Sulfitolysis of SIB (97 mL Capto Q)) came to 84%. Further, the “Dimer Purity (%)” value in series [3] (Sulfitolysis of SIB (97 mL Capto Q)) is recorded as 74%. Besides, in series [4] (construct 1 mg/kg, rhIL-10 0.9 mg/kg (equimolar), non-inflamed colon tissue), the “increase in ratio of pSTAT3 to total STAT3” value is “approximately 50%”. Moreover, in series [4] (construct 10 mg/kg, rhIL-10 3 mg/kg (equimolar)), the “increase of systemic IL-1Ra” value was “about 3 fold”. Also, in series [5] (82 mg), the “time of plasma IL-1Ra Cmax” value is 3 hours post-dose. Moreover, the “dose response of IL-1Ra Cmax” value in series [5] (1, 4 and 20.5 mg) was “No dose response relationship”. Also, the “time by which plasma IL-1Ra returned to baseline” value in series [5] (all dose groups) is listed as at most 24 hour post-dose. In addition, in series [6] (159 pmoles intraluminal), the “rhIL-10 in serum of healthy animals” value was “moderately high” and the “rhIL-10 in serum of inflamed animals” value is reported as “minimal amounts”. Also, in series [6] (159 pmoles, 10 minutes), the “rhIL-10 levels in inflamed tissue vs rhIL-10 alone” value is given as “approximately 10 fold higher” and the “rhIL-10 uptake in normal intestinal tissues vs rhIL-10 alone” value is listed as “two- to five-fold higher”. The “systemic IL-10 after oral vs subcutaneous or intravenous administration” value in series [7] (oral 1 mg or 5 mgs) is reported as “minimal systemic levels of IL-10”. Further, the IL-1Ra/IL-10 ratio entry in series [7] (subcutaneous 0.2 mg/kg or intravenous 0.05 mg/kg) is reported as “minimal effect”. For the same molecule, the “FCP activity at higher doses” value in series [8] (10 mg and 30 mg) is listed as “diminution of activity”. Besides, the “Geboes score of one UC patient, pre-dose to post-treatment” value in series [8] (10 mg, 14 days, 22 point scale) is reported as “improved from a score of 15 to a score of three”. In addition, the “tolerability in patients with UC” value in series [8] (1-30 mg once daily, 14 days) was “well tolerated”. In addition, in series [8] (1 and 3 mgs, baseline CRP greater than 5 mg/L), the “CRP levels vs placebo” value is “greater reductions in CRP levels”. In series [8] (14 days, active patients), the “patients with reduced Geboes score” value worked out at 60%. In series [8] (human, in vivo), the “TEAEs in the 12 active patients” value is reported as 20.
